Assay [1] deals with Subtilisin-treated taxol-stabilized microtubules (C-terminal tubulin tails cleaved), labeled with Alexa Fluor 488 and biotin (bovine) (UniProt Q6B856). The assay is described as follows: widefield fluorescence microscopy of labeled protein on tethered microtubules; Alexa Fluor 488-labeled microtubules tethered to a coverslip by biotin-streptavidin; TMR-labeled LRRK^RCKW (6.25 nM–50 nM; 100 nM for the NaCl series) incubated 5 minutes in 20 mM Hepes pH 7.4, 80 mM NaCl, 0.5 mM MgCl2, 0.5 mM TCEP, 5% glycerol, 20 μM GDP; also increasing sodium chloride.

For assay [2], the target named is Taxol-stabilized microtubules from porcine brain tubulin (porcine) (UniProt P02550). The experiment in a line: co-sedimentation; 200 nM LRRK^RCKW with various concentrations of taxol-stabilized microtubules, 10 minutes at room temperature, 20 mM Hepes pH 7.4, 110 mM NaCl (also 100 and 150 mM NaCl), 0.5 mM MgCl2, 0.5 mM TCEP, 5% glycerol, 20 μM GDP, 20 μM taxol; pelleted at 108,628 g; depletion from the supernatant on SYPRO-Red gels.

TMR-LRRK2^RCKW (LRRK2^RCKW randomly labeled with BODIPY TMR-X), sequence (Q5S007 1327-2527): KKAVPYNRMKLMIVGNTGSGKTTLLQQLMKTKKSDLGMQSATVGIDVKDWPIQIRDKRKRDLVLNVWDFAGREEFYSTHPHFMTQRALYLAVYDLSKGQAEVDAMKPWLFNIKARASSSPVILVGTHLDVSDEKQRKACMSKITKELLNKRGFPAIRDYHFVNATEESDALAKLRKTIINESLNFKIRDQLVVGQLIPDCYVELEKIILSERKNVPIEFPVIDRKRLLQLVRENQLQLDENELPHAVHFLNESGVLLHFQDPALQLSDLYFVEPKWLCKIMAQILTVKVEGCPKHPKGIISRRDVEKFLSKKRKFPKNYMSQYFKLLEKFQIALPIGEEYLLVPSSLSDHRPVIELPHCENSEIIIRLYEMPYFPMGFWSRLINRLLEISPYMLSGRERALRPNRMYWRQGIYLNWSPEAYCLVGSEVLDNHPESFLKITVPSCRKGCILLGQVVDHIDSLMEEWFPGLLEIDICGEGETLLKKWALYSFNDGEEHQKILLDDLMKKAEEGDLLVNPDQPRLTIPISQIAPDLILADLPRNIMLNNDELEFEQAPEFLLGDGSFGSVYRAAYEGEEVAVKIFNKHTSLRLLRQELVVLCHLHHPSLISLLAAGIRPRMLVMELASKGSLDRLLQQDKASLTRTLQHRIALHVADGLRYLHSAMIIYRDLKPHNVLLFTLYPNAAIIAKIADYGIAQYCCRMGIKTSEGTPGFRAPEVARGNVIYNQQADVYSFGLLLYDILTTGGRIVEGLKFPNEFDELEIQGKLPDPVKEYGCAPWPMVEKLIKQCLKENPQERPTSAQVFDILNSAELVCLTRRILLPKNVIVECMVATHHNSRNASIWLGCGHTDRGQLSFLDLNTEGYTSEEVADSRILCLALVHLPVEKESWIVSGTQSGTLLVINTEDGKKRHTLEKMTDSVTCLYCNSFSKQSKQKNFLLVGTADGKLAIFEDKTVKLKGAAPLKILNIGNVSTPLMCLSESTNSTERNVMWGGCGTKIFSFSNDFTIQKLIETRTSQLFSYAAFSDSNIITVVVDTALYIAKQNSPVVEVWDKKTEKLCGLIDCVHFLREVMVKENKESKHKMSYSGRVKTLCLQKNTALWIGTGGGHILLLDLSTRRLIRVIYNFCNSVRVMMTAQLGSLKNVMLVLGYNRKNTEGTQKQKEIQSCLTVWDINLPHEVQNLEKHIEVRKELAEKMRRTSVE
Subtilisin-treated taxol-stabilized microtubules (C-terminal tubulin tails cleaved), labeled with Alexa Fluor 488 and biotin (bovine), sequence (Q6B856 whole entry, looked up): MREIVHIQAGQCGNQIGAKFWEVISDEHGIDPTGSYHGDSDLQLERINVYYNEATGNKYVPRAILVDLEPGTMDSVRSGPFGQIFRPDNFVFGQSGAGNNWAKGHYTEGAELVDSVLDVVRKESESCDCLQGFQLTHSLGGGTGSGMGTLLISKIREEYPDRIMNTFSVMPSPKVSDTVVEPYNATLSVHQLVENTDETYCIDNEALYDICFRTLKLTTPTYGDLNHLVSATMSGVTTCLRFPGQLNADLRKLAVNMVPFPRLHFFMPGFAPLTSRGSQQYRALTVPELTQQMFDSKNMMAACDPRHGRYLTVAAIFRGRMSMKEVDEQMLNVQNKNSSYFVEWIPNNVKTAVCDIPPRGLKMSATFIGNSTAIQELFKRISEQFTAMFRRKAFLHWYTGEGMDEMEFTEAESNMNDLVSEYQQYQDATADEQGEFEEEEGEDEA

With “TMR-LRRK2^RCKW (LRRK2^RCKW randomly labeled with BODIPY TMR-X) (from UniProt Q5S007 1327-2527) (domain or fragment)”, the decrease of microtubule binding against untreated microtubules in assay [1] is 50%.

As for “LRRK2^RCKW-R1731D (from UniProt Q5S007 1327-2527) (domain or fragment)”, in assay [2], the reduction of pelleting with microtubules against WT LRRK2^RCKW amounted to 50%.

The record behind these values is paper PMC9758056.
